Reference: patent US20150037339A1

B1: Activin A, P08476 311-426 (ligand)
chain: GLECDGKVNICCKKQFFVSFKDIGWNDWIIAPSGYHANYCEGECPSHIAGTSGSSLSFHSTVINHYRMRGHSPFANLKSCCVPTKLRPMSMLYYDDGQNIIKKDIQNMIVEECGCS
B2: Activin B, P09529 293-407 (ligand)
chain: GLECDGRTNLCCRQQFFIDFRLIGWNDWIIAPTSYYGNYCEGSCPAYLAGVPGSASSFHTAVVNQYRMRGLNPGTVNSCCIPTKLSTMSMLYFDDEYNIVKRDVPNMIVEECGCA
B3: Activin AB, P08476 311-426; P09529 293-407 (ligand)
chain 1: B1 chain
chain 2: B2 chain
B4: Activin AC, P55103 237-352 (ligand, human)
chain 1: B1 chain
chain 2: GIDCQGGSRMCCRQEFFVDFREIGWHDWIIQPEGYAMNFCIGQCPLHIAGMPGIAASFHTAVLNLLKANTAAGTTGGGSCCVPTARRPLSLLYYDRDSNIVKTDIPDMVVEACGCS
B5: BMP2 (ligand, human, UniProt P12643 283-396, looked up)
chain: QAKHKQRKRLKSSCKRHPLYVDFSDVGWNDWIVAPPGYHAFYCHGECPFPLADHLNSTNHAIVQTLVNSVNSKIPKACCVPTELSAISMLYLDENEKVVLKNYQDMVVEGCGCR
B6: BMP4 (ligand, human, UniProt P12644 293-408, looked up)
chain: SPKHHSQRARKKNKNCRRHSLYVDFSDVGWNDWIVAPPGYQAFYCHGDCPFPLADHLNSTNHAIVQTLVNSVNSSIPKACCVPTELSAISMLYLDEYDKVVLKNYQEMVVEGCGCR
B7: BMP9 (ligand, human, UniProt Q9UK05 320-429, looked up)
chain: SAGAGSHCQKTSLRVNFEDIGWDSWIIAPKEYEAYECKGGCFFPLADDVTPTKHAIVQTLVHLKFPTKVGKACCVPTKLSPISVLYKDDMGVPTLKYHYEGMSVAECGCR
B8: BMP10 (ligand, human, UniProt O95393 317-424, looked up)
chain: NAKGNYCKRTPLYIDFKEIGWDSWIIAPPGYEAYECRGVCNYPLAEHLTPTKHAIIQALVHLKNSQKASKACCVPTKLEPISILYLDKGVVTYKFKYEGMAVSECGCR
B9: H4H10429P (antibody, human IgG4, V domains shown)
VH: QVQLVESGGGVVQPGRSLRLSCVASGFTVSSYGIHWVRQAPGKGLEWVSVIWYDGRNKDYADSVKGRFTISRDNSKNTVYLEMKGLRAEDTALYYCARDKTGDFDSWGQGTLVTVSS
VL: DIQMTQSPSSLSASVGDRVTITCRASQNINSFLSWYQQKPGKAPKFLIYDASSIQSGAPSRFSGSGSGTDFTLTISSLQPEDFATYYCQQSYSSPFTFGQGTKLEIK

Key:
[1] = biological target: activin Type II receptors; experiment: cell-based or functional assay
[2] = biological target: BMP receptor types I and II (on W-20-17/BRE-luc cells); experiment: cell-based or functional assay
[3] = biological target: hBMP7 (human) (UniProt P18075); experiment: SPR (Biacore 4000), captured on anti-human Fc, 200 nM ligand injected, 37 C
hBMP7 (human), sequence (P18075 293-431 limits assumed): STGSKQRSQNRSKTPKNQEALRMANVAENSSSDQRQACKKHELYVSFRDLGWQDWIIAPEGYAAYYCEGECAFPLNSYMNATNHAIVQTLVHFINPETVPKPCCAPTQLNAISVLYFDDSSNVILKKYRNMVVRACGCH

| Binder | EC50, activation of A204/CAGAx12-Luc cells (Smad 2/3-luciferase reporter) [1] [nM] | EC50 [M]; activation of W-20-17/BRE-luc luciferase reporter cells [2] [M] | further results |
| --- | --- | --- | --- |
| B1 | 0.099 |  |  |
| B2 | 0.047 |  |  |
| B3 | 0.019 |  |  |
| B4 | 4.4 |  |  |
| B5 |  | 3.4e-11 |  |
| B6 |  | 6.3e-11 |  |
| B7 |  | 2.6e-10 |  |
| B8 |  | 2.5e-09 |  |
| B9 |  |  | binding response (resonance units) for 200 nM ligand [3]: 9.2 RU |
